Data as given in patent US20190271710A1.

Columns and labels:
[1] = molecular target: p217+ tau peptides (endogenous human tau protein or tau fragments phosphorylated at T217 and/or T212) (human) (UniProt P10636); experiment: Simoa sandwich ELISA, pT3 capture beads, pooled AD CSF diluted 1:2
[2] = molecular target: p217+ tau peptides (endogenous human tau protein or tau fragments phosphorylated at T217 and/or T212) (human) (UniProt P10636); experiment: Simoa sandwich ELISA, pT3 capture beads, pooled AD CSF diluted 1:4
[3] = molecular target: p217+ tau peptides (endogenous human tau protein or tau fragments phosphorylated at T217 and/or T212) (human) (UniProt P10636); experiment: Simoa sandwich ELISA, pT3 capture beads, pooled AD CSF diluted 1:8
[4] = molecular target: p217+ tau peptides (endogenous human tau protein or tau fragments phosphorylated at T217 and/or T212) (human) (UniProt P10636); experiment: Simoa sandwich ELISA, pT3 capture beads, pooled AD CSF diluted 1:16
[5] = molecular target: p217+ tau peptides (endogenous human tau protein or tau fragments phosphorylated at T217 and/or T212) (human) (UniProt P10636); experiment: Simoa sandwich ELISA, pT3 capture beads, pooled AD CSF diluted 1:32
[6] = molecular target: p217+ tau peptides (endogenous human tau protein or tau fragments phosphorylated at T217 and/or T212) (human) (UniProt P10636); experiment: Simoa sandwich ELISA, pT3 capture beads, pooled AD CSF diluted 1:64

Sequence of p217+ tau peptides (endogenous human tau protein or tau fragments phosphorylated at T217 and/or T212) (human) (P10636 other isoform, or with tags, fused parts or gaps limits assumed): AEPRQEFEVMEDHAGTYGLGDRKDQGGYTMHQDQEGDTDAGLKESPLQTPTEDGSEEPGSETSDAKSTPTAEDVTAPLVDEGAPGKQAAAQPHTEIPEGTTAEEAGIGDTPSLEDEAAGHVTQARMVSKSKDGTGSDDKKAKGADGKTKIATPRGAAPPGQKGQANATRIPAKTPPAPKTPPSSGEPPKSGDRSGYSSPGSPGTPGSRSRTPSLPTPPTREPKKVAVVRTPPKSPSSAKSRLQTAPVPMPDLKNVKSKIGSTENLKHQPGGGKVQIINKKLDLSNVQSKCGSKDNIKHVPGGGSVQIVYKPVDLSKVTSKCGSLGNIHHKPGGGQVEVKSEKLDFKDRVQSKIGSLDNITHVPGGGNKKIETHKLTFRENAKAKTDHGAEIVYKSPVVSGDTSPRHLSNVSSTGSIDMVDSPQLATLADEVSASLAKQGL

- S/N @ 1:2 dilution [1]: 525 S/N
- S/N @ 1:4 dilution [2]: 262 S/N
- S/N @ 1:8 dilution [3]: 147 S/N
- S/N @ 1:16 dilution [4]: 75 S/N
- S/N @ 1:32 dilution [5]: 35 S/N
- S/N @ 1:64 dilution [6]: 19 S/N
Substance: Quanterix tau 2.0 assay detector (antibody)
